“Also recorded” adds a separate entry of the source. Read-outs that look alike come from different tables or passages of the source.
Experiments:
[1] = test system: MDA-MB-231 cells stable transfected with Luc2-GFP; assay: Mouse lung metastasis model, bioluminescence imaging; type: in vivo; details: mice, tail-vein injection, treated one day before injection
Experimental: FIG. 4A and FIG. 4B. Leronlimab block breast cancer metastasis in mice. […] MDA-MB-231 cells stable transfected with Luc2-GFP was injected into the mice through tail-vein. The mice in each group were treated one day before injection. The metastasis tumor formed in the lung was determined by bioluminescence imaging. […] The quantitative analysis of tumor size in each group was shown in (FIG. 4B). The size of tumors defined by photon flux (x10^8 p/sec/cm^2/sr).

CCR5 [2] = molecular target: T1, CCR5 (Homo sapiens, UniProt P51681); set-up: endogenous in cells; host or cells: CD4+ T cells; details: cited from earlier work
T1 sequence (P51681 whole entry): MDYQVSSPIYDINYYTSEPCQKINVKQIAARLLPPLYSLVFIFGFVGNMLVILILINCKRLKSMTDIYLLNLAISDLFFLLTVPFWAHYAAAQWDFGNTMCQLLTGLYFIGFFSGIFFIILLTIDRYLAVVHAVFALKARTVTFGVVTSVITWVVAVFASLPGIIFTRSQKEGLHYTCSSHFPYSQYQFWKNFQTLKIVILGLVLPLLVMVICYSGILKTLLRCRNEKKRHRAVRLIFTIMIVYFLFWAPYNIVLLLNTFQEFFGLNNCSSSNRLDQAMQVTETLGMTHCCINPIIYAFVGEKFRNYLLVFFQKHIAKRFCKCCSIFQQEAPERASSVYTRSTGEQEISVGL

CCR5 [3] = molecular target: T1, CCR5; details: CHO-K1 cells, cited from earlier work
MDA-MB-231 cells = assay: 3D-matrigel invasion assay, CCL5 as chemoattractant; type: cell-based, human
Description: FIG. 3A, FIG. 3B, FIG. 3C, and FIG. 3D. […] The ability of breast cancer cells to invade extra-cellular matrix is […] an important step in tumor metastasis (Zetter, 1990). To test the ability of PRO140 to block 3D-matrigel invasion assay, MDA-MB-231 cells were used. CCL5 was used as chemoattractant to induce invasion. The small molecule inhibitor of CCR5, vicriviroc, was used as a form of positive control.

[4] = test system: breast cancer tumor model; assay: Breast cancer tumor model; type: in vivo
Description: C-C Chemokine receptor type-5 (CCR5) is selectively reexpressed on the surface of tumor cells during the dedifferentiation and transformation process (velasco-velazquez-2012).
Another cancer hallmark that CCR5 presents a potential role is the DNA repair pathways. This cancer characteristic attenuates apoptosis and contributes to chemotherapy resistance and tumor cells immortality. Studies have correlated the altered expression of C-C Chemokine Ligand type-5 (CCL5) with disease progression in patients with breast cancer [Luboshits, 1999] [Niwa, 2001] [Zhang, 2009].

[5] = test system: CCR5+ metastatic Triple Negative Breast Cancer; assay: Phase Ib/II study, CTC/EMT/CAML assessment in blood (LifeTrac Assay); type: in vivo, human
Description: Each treatment cycle consisted of 21 days. […] This treatment regimen was used for all subjects enrolled in the mTNBC study, unless otherwise indicated.
The blood sample for circulating tumor cells (CTC) and cancer associated macrophage-like cells (CAMLs) assessment was collected at baseline and subsequently at Day 1 of each treatment cycle to assess changes in CTCs and CAMLs after treatment and to perform correlative analysis between CCR5 expression and PD-L1 expression.
Creatv Microtech has developed a size based technology and detection methodology (LifeTrac Assay) that enables the collection and characterization of all cancer associated cells in the blood i.e., CTCs, epithelial mesenchymal transition cells (EMTs) and CAMLs.[Adams Cytometry 2015, Adams RSC 2014]. The CellSieve™ filtration platform is used to capture CAMLs and CTCs.

HIV-1 = details: at concentrations that do not affect CCR5 chemokine receptor activity in vitro; cited from earlier work
CCR5 [6] = molecular target: T1, CCR5; assay: CCL5 induced calcium responses in MDA-MB-231-CCR5 cells (Fluo-4, living cell image); type: cell-based; set-up: expressed in transfected cells; host or cells: MDA-MB-231 human breast cancer cell line (MDA-MB-231-CCR5)
Description: FIG. 2A, FIG. 2B, FIG. 2C, and FIG. 2D. […] CCR5 activation induces calcium flux (Mueller et al., 2002; Petkovic et al., 2004). […] Fluo-4 was used as calcium concentration indicator. The CCR5 antagonist, vicriviroc, was used as positive control (FIGS. 2A and 2D).

[7] = Subject 706-001, C1D1, with carboplatin
[8] = Subject 706-001, C2D1, with carboplatin
[9] = Subject 706-001, C3D1, with carboplatin
[10] = Subject 706-001, C4D1, with carboplatin
[11] = Subject 706-001, C5D1, with carboplatin
[12] = Subject 706-001, C6D1, with carboplatin
[13] = second subject, after two weeks of treatment, with carboplatin

B1: leronlimab: humanized monoclonal antibody to CCR5; humanized version of the murine mAb PA14 (antibody, chains of the INN, looked up, V domains shown)
VH: EVQLVESGGGLVKPGGSLRLSCAASGYTFSNYWIGWVRQAPGKGLEWIGDIYPGGNYIRNNEKFKDKTTLSADTSKNTAYLQMNSLKTEDTAVYYCGSSFGSNYVFAWFTYWGQGTLVTVSS
VL: DIVMTQSPLSLPVTPGEPASISCRSSQRLLSSYGHTYLHWYLQKPGQSPQLLIYEVSNRFSGVPDRFSGSGSGTDFTLKISRVEAEDVGVYYCSQSTHVPLTFGQGTKVEIK
- breast cancer tumor metastasis to the lung [1]: blocks human breast cancer xenograft metastasis in mice; also recorded: dramatically decreased breast cancer tumor metastasis to the lung
- effect on cAMP levels (CCR5 [2]; added to CD4+ T cells alone): does not affect cAMP levels
- effect on cAMP levels (CCR5 [2]; administered with CCL5): diminishes the effect of CCL5 on cAMP levels
- effect on chemotaxis (CCR5 [3]; administered with CCL5): reduces CCL5-induced chemotaxis
- effect on chemotaxis (CCR5 [3]; alone): does not affect chemotaxis of CHO-K1 cells
- effect on MDA-MB-231 cell invasion (MDA-MB-231 cells; 175 µg/ml): can effectively block MDA-MB-231 cell invasion
- effect on MDA-MB-231 cell invasion (MDA-MB-231 cells; 350 µg/ml): can effectively block MDA-MB-231 cell invasion
- effect on CCL5-induced cell invasion (MDA-MB-231 cells; vicriviroc as positive control): reduced CCL5-induced MDA-MB-231 breast cancer cell invasion with similar efficacy as vicriviroc; also recorded: blocked 3D matrigel invasion
- tumor volume [4]: significant reduction in tumor volume
- CAML-Total [5, 7]: 1
- CTC-Total [5, 7]: 0
- EMT-Total [5, 7]: 2
- Largest CAML, PD-L1 [5, 7]: 47 μm
- Number of Apoptotic CTC, PD-L1 [5, 7]: 0
- Number of Apoptotic CTCs, CCR5 [5, 7]: 0
- Number of CAMLs, CCR5 [5, 7]: 0
- Number of CAMLs, PD-L1 [5, 7]: 1
- Number of CTCs, CCR5 [5, 7]: 0
- Number of CTCs, PD-L1 [5, 7]: 0
- Number of EMTs, CCR5 [5, 7]: 1
- Number of EMTs, PD-L1 [5, 7]: 1
- CAML-Total [5, 8]: 3
- CTC-Total [5, 8]: 0
- EMT-Total [5, 8]: 0
- Largest CAML, CCR5 [5, 8]: 27 μm
- Largest CAML, PD-L1 [5, 8]: 69 μm
- Number of Apoptotic CTC, PD-L1 [5, 8]: 0
- Number of Apoptotic CTCs, CCR5 [5, 8]: 0
- Number of CAMLs, CCR5 [5, 8]: 1
- Number of CAMLs, PD-L1 [5, 8]: 2
- Number of CTCs, CCR5 [5, 8]: 0
- Number of CTCs, PD-L1 [5, 8]: 0
- Number of EMTs, CCR5 [5, 8]: 0
- Number of EMTs, PD-L1 [5, 8]: 0
- Largest CAML, CCR5 [5, 9]: 39 μm
- Largest CAML, PD-L1 [5, 9]: 30 μm
- Number of Apoptotic CTC, PD-L1 [5, 9]: 0
- Number of Apoptotic CTCs, CCR5 [5, 9]: 0
- Number of CAMLs, CCR5 [5, 9]: 3
- Number of CAMLs, PD-L1 [5, 9]: 1
- Number of CTCs, CCR5 [5, 9]: 0
- Number of CTCs, PD-L1 [5, 9]: 0
- Number of EMTs, CCR5 [5, 9]: 0
- Number of EMTs, PD-L1 [5, 9]: 0
- CAML-Total [5, 10]: 1
- CTC-Total [5, 10]: 0
- EMT-Total [5, 10]: 0
- Largest CAML, CCR5 [5, 10]: 0 μm
- Largest CAML, PD-L1 [5, 10]: 31 μm
- Number of Apoptotic CTC, PD-L1 [5, 10]: 0
- Number of Apoptotic CTCs, CCR5 [5, 10]: 0
- Number of CAMLs, CCR5 [5, 10]: 0
- Number of CAMLs, PD-L1 [5, 10]: 1
- Number of CTCs, CCR5 [5, 10]: 0
- Number of CTCs, PD-L1 [5, 10]: 0
- Number of EMTs, CCR5 [5, 10]: 0
- Number of EMTs, PD-L1 [5, 10]: 0
- CAML-Total [5, 11]: 3
- CTC-Total [5, 11]: 0
- EMT-Total [5, 11]: 0
- Largest CAML, CCR5 [5, 11]: 33 μm
- Largest CAML, PD-L1 [5, 11]: 56 μm
- Number of Apoptotic CTC, PD-L1 [5, 11]: 0
- Number of Apoptotic CTCs, CCR5 [5, 11]: 0
- Number of CAMLs, CCR5 [5, 11]: 1
- Number of CAMLs, PD-L1 [5, 11]: 2
- Number of CTCs, CCR5 [5, 11]: 0
- Number of CTCs, PD-L1 [5, 11]: 0
- Number of EMTs, CCR5 [5, 11]: 0
- Number of EMTs, PD-L1 [5, 11]: 0
- CAML-Total [5, 12]: 8
- CTC-Total [5, 12]: 0
- EMT-Total [5, 12]: 0
- CCR5 expression on cancer-associated cells ([5]; first subject, after approximately 11 weeks of treatment): large reductions in CCR5 expression
- circulating tumor cells (CTC) or putative metastatic tumor cells in the peripheral blood ([5]; first subject, following 16 weeks of treatment): no detectable circulating tumor cells (CTC) or putative metastatic tumor cells
- levels of CTC [5, 13]: no detectable levels of CTC
- reduction in EMT cells [5, 13]: 70%
- CAML count ([5]; second subject, following at least two weeks of treatment, initial count 45): 30
- decrease of total CTC+EMT counts ([5]; third subject, first two weeks of treatment, with carboplatin): 75%
- inhibition of HIV-1 entry and replication (HIV-1): potently inhibits HIV-1 entry and replication
- effect on CCL5 induced calcium responses (CCR5 [6]): can block CCL5 induced calcium responses
- calcium response at calcium peak induce by CCL5 (CCR5 [6]; Fluo-4, control cells 1.23±0.10, P<0.001): 0.54±0.13
- effect on CCL5 induced calcium responses (CCR5 [6]; listed as Leronlimab): abrogated CCL5 induced Ca^+2 flux
